# Key:
# fibrin [1] = target: T1, fibrin (Homo sapiens, UniProt P02671); test: Factor XIIIa-mediated incorporation of FITC-labeled thymosin β4 into fibrin (spectrophotometric); format: biochemical
# T1 construct: purchased Enzyme Research Laboratories (South Bend, Ind.); host or cells: fibrin generated in the well or tube from the purchased fibrinogen with bovine thrombin
# T1 sequence (P02671 36-629): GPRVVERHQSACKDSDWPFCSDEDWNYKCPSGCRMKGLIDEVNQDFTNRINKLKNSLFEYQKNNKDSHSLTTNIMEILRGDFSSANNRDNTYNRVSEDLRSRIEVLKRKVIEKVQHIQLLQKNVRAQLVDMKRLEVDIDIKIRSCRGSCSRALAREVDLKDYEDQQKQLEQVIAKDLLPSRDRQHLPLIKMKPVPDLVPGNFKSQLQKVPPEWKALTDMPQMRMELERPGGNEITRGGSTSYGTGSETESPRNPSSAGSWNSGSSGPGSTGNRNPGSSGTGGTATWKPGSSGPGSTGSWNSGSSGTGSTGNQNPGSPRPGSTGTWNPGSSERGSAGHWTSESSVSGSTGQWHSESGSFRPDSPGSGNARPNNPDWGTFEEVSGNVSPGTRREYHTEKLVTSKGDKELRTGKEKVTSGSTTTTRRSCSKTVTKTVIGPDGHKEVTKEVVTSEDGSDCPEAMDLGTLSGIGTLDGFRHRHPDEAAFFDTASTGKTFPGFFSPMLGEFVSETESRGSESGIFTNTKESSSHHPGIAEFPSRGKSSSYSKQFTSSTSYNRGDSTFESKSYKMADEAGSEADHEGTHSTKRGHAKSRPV
# T1 sequence (P02675 45-491 partner): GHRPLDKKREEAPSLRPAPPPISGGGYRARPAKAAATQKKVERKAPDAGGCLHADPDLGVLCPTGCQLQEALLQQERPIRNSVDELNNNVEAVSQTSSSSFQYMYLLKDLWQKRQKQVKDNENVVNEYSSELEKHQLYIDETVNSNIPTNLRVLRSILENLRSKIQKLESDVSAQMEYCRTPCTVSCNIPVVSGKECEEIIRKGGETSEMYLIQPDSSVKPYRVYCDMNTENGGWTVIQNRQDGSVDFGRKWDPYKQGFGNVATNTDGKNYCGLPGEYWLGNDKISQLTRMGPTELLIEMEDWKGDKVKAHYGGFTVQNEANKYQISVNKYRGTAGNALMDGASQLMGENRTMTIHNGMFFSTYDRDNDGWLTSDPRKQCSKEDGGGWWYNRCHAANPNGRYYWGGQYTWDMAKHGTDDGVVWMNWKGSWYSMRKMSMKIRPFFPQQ
# T1 sequence (P02679 27-437 isoform P02679-2 partner): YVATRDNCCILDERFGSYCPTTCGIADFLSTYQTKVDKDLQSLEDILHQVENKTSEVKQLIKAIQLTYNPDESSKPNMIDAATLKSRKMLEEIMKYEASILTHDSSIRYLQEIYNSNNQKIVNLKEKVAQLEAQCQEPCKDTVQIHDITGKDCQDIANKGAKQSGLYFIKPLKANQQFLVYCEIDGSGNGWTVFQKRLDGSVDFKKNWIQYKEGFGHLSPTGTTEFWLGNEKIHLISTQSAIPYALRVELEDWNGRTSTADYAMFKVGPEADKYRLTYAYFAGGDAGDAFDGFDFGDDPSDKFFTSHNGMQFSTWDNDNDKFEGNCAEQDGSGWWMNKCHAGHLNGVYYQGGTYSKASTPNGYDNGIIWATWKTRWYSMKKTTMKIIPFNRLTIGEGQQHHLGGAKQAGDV
# Protocol: Reactions of incorporation of FITC-labeled and unlabeled thymosin β4 into fibrinogen and fibrin were performed in Eppendorf tubes containing a mixture of fibrinogen at 3 mg/mL (9 μM) and thymosin β4 or FITC-labeled thymosin β4 at […] (30 μM) in 100 μL TBS with 2.5 mM CaCl2. The reactions were initiated by addition of FXIIIa(Ca) or FXIIIa(Thr) to final concentration of 30 μg/mL. The final concentration of thrombin in the FXIIIa(Thr)-containing mixtures was made at 2.5 NIH u/mL, sufficient to rapidly form fibrin clot which was observed visually. The reactions with FITC-labeled thymosin β4 lasted for 4 hours at 37° C. in the dark and were stopped by heat inactiviation of the enzymes in boiling water for 5 min during fibrinogen and fibrin denatured and precipitated. The pellets were centrifuged and washed 3 times in TBS and then solubilized. The amounts of fibrin(ogen) and FITC-labeled thymosin β4 in the solubilized pellet were determined spectrophotomertrically using absorption molar coefficients E280,1%=15.0 and ε495=72,000 M^−1cm^−1, respectively. To prepare samples with unlabeled thymosin β4 for analysis by SDS-PAGE and Western blot the reaction mixtures at the indicated time were heat-inactivated as above and solubilized by addition of sample buffer (Invitrogen) containing SDS and reducing agent.
# Aα221-391 sub-fragment = target: T2, Aα221-391 sub-fragment (Homo sapiens, UniProt P02671); test: ELISA of incorporation into immobilized Aα221-391 sub-fragment; format: biochemical
# T2 construct: (residues Aα221-391 and Aα392-610, respectively); made in house; host or cells: E. coli, pET20b expression vector
# T2 sequence (P02671 240-410): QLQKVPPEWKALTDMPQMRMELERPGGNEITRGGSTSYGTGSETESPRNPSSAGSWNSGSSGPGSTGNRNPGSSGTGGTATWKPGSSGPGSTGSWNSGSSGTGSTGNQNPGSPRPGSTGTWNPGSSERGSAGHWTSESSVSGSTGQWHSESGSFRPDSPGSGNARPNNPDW
# Protocol: (§1) The interaction between thymosin β4 and fibrin(ogen) and its fragments in the presence or absence of FXIIIa was studies by ELISA using plastic microliter plates. Wells of microliter plates were coated overnight at […] with fibrinogen and fibrin at 10 μg/mL or with the recombinant fragments of 20 μg/ml, all in 0.1 M NaHCO3 buffer, pH 8.3. Fibrin was made by addition to the wells of a mixture containing 10 μg/mL fibrinogen 1 NIH u/ml thrombin and 400 u/ml aprotinin, followed by overnight incubation at +4° C. The wells were then blocked by incubation with Super Blocker (Pierce) at 37° C. for 1 h. Following washing with TBS containing 0.05% Tween-20 (TBS-Tween), the indicated concentrations of thymosin β4, FXIII, FXIIIa(Thr) and FXIIIa(Ca) were added to the wells and incubated for 2-2.5 h at 37° C. Bound (incorporated) thymosin β4 was detected by the reaction with rabbit anti-thymosin β4 serum and peroxidase-conjugated anti-rabbit IgG. A TMB Microwell Peroxidase Substrase was added to the wells, and the incorporated thymosin β4 was measured spectrophotometrically at 450 nm.
# fibrin [2] = target: T1, fibrin; test: Solid-phase binding assay (ELISA), immobilized fibrin
# Protocol: as §1
substance,measurement,setting,value
thymosin β4,degree of incorporation into fibrin,"fibrin [1]; fibrinogen 9 μM, thymosin β4 30 μM, factor XIIIa with thrombin, 4 hours, 37° C.",0.4 moles per mole
same,molar incorporation ratio of thymosin β4 to fibrin,fibrin [1]; physiological concentrations of fibrin(ogen) and factor XIII,0.4
same,non-covalent interaction with Aα221-391 sub-fragment (ELISA),Aα221-391 sub-fragment; non-activated factor XIII or without it,no significant non-covalent interaction
same,incorporation into immobilized Aα221-391 (ELISA),Aα221-391 sub-fragment; presence of factor XIIIa,very low
same,non-covalent interaction with immobilized fibrin (ELISA signal),fibrin [2]; absence of factor XIII or non-activated factor XIII,no significant non-covalent interaction
same,factor XIIIa-mediated incorporation into immobilized fibrin (ELISA signal),fibrin [2]; factor XIII activated by CaCl2,higher than that into fibrinogen

# From US20100204147A1, “Methods For Delivering Thymosin Beta 4, Analogues, Isoforms and Other Derivatives” (REGENERX BIOPHARMACEUTICALS, INC., priority 2003, published 2010)
